No end group written: not given here.

Two molecules from article PMC13388985 (Nature Communications, 2026) can be followed below.

The target of test [1] is T1, GST-tagged wild-type Af1521 macrodomain (UniProt O28751 1-192).
T1 sequence: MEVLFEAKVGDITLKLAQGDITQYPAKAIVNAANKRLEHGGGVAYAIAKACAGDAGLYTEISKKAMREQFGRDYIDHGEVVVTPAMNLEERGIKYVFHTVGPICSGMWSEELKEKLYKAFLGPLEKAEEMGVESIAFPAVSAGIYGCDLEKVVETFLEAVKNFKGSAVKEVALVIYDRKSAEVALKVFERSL
Kind of test: pull-down.

Test [2] deals with T2, GST-tagged Af1521-K35E/Y145R macrodomain (UniProt O28751 1-192, K35E | Y145R).
T2 sequence: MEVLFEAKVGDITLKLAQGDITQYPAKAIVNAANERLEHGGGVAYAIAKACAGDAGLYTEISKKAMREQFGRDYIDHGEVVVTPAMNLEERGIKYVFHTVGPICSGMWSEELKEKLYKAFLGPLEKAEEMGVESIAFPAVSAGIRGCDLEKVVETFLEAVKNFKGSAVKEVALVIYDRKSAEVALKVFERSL
Kind of test: pull-down.

Consider GWTAR(ADP‑ribose)KSAEAGTAGK-NH2 [Synthetic peptide GWTARKSAEAGTAGK-amide with ADPr on Arg-5], for which the binding result in test [1] and in test [2] was “binds” throughout.

As to GWTARKS(ADP‑ribose)AAAGTAGK-NH2 [Synthetic peptide GWTARKSAAAGTAGK-amide with ADPr on Ser-7], the binding result in test [1] and in test [2] was “binds” throughout.
